Our source for the stoichiometry N values is paper PMC10138647.

The target of the assay is GST-cytPERK (cytosolic domain of PERK expressed as a GST fusion protein) (mouse). Description: cross-linking; GST-cytPERK (1.3 µM) in solution, phosphate buffer pH 7.4, 2 mM MgCl2, 70 mM KCl, 1 mM DTT; 20 min at 27 °C with UDCA (50, 200, 1000 µM) or without, then 0.4 mM DSS for 30 min at 27 °C; quenched with Tris-HCl; 7% SDS-PAGE, blot with anti-PERK antibody; dimer relative to monomer by densitometry.

What is called stoichiometry N is the number of molecules, sites or subunits per partner or assembly. In the case of “GST-cytPERK (cytosolic domain of PERK expressed as a GST fusion protein) (domain or fragment)”, the stoichiometry N stood at 2.
